Source: patent publication US20180244756A1 (US Dept. of Health and Human Services, published 2018)

T1: MERS-CoV S-[change] protein, England1 strain (MERS-CoV, England1 strain, UniProt K9N5Q8 19-1290)
T1 sequence: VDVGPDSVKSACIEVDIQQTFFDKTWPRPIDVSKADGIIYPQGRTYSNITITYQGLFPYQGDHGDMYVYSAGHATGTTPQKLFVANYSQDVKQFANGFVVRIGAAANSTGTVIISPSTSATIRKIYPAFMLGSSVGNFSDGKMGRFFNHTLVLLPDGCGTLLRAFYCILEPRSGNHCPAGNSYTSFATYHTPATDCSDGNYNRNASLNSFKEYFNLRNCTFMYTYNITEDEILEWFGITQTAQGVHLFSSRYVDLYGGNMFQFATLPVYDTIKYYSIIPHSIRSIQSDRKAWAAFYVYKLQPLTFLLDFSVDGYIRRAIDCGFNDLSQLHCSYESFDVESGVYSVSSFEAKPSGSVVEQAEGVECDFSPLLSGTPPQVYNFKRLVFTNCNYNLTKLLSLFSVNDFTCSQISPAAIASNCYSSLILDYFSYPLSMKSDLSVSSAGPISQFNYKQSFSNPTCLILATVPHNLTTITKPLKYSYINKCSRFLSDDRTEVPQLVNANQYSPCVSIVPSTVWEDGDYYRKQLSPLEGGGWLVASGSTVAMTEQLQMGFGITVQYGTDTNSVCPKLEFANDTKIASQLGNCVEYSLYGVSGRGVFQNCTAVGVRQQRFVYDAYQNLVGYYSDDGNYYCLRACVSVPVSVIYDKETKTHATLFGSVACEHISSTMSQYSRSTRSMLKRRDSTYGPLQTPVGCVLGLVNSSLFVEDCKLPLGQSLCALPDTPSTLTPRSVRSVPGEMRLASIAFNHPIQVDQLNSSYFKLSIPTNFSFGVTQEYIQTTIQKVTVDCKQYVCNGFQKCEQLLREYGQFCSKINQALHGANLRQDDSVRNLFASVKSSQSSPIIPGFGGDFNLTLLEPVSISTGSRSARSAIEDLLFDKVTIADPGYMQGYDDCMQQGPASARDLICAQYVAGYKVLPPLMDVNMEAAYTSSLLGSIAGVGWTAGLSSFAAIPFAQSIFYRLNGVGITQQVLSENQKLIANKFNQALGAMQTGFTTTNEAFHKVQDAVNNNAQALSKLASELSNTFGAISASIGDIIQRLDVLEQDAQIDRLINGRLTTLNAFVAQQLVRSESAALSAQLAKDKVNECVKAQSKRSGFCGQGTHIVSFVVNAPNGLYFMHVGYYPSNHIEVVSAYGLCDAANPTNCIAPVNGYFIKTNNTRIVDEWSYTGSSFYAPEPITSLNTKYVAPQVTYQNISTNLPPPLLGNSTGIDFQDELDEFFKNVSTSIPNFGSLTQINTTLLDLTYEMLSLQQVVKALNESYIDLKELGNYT

B1: G4 antibody (antibody, V domains shown)
VH: QVQLQQSGPELVRPGVSVKISCKGSGYTFTDYAIHWVKQSHAKSLEWIGVFSTYYGNTNYNQKFKGRATMTVDKSSSTAYMELARLTSEDSAIYYCARKSYYVDYVDAMDYWGQGTSVTVSS
VL: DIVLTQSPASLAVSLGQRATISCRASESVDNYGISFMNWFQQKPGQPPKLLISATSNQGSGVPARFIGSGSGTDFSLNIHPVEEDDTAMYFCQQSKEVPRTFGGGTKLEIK
B2: G2 antibody (antibody, V domains shown)
VH: QVQLQQSGGELVKPGASVKLSCKTSGFTFSSSYISWLKQKPGQSLEWIAWIYAGTGGTEYNQKFTGKAQVTVDTSSSTAYMQFSSLTTEDSAIYYCARGGSSFAMDYWGQGTSVTVSS
VL: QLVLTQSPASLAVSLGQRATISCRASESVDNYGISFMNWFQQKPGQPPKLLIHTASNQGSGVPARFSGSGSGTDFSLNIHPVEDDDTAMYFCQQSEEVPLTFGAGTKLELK

Molecular target: T1, MERS-CoV S-[change] protein, England1 …
Assay: ELISA, hybridoma supernatant

Row | Binder | ELISA (unit not given)
1 | B1 | 2.8
2 | B2 | 0.58
